Results as given in IntAct's records for PubMed 16266891.

Target: pim1_human PIM1 (UniProt P11309)

| effect of a mutation on the interaction | Substance |
| --- | --- |
| increasing interaction | Small ribosomal subunit protein eS19 (Homo sapiens) (from UniProt P39019) R56Q |
| decreasing interaction | Small ribosomal subunit protein eS19 (Homo sapiens) (from UniProt P39019) R101H |
| increasing interaction | Small ribosomal subunit protein eS19 (Homo sapiens) (from UniProt P39019) R62W |
